Consider 4 molecules from paper PMC9482650, “Quantitative fragmentomics allow affinity mapping of interactomes” (Nature Communications, 2022).

Targets include DLG1_3, Q12959; AHNAK1, Q09666; MAST1, Q9Y2H9; NOS1, P29475; DLG2_3, Q15700; HTRA1, Q92743; PTPN3, P26045; IL16_3, Q14005; MAGI2_5, Q86UL8; TJP1_2, Q07157; PICK1, Q9NRD5; NHERF4_2, Q86UT5.
Holding throughout (experiment): holdup assay
Holding throughout (set-up): key: below the threshold = too weak to quantify, mostly under pKd 3.1 to 4
What all share (conditions): plain residues with an end cap or a label only (N-terminal biotin on a linker: ado-ado)

In another assay the target is T1, LIN7A, O14910.
T1 sequence (O14910 103-200, limits assumed, looked up): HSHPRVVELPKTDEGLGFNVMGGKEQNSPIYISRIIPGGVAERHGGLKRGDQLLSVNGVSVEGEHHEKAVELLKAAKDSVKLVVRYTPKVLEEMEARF

The next assay addresses T2, MPDZ_12, O75970.
T2 sequence (O75970 1857-1958, limits assumed, looked up): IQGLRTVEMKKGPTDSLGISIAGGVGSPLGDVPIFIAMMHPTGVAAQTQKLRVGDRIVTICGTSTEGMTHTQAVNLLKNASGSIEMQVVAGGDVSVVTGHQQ

A further assay has as its target T3, DFNB31_3, Q9P202.
T3 sequence (Q9P202 811-907, limits assumed, looked up): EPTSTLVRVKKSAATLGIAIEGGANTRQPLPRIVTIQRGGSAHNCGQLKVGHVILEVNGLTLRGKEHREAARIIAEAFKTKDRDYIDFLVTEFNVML

A further assay deals with T4, DLG3_1, Q92796.
T4 sequence (Q92796 125-227, limits assumed, looked up): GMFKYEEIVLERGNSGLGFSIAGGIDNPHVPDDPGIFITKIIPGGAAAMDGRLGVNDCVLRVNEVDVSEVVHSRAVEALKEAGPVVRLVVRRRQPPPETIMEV

The target of another assay is T5, NHERF3_4, Q5T2W1.
T5 sequence (Q5T2W1 373-468, limits assumed, looked up): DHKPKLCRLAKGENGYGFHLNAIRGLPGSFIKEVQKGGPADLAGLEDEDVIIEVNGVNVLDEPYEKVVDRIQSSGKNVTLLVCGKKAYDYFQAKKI

In another assay the target is T6, MPDZ_10, O75970.
T6 sequence (O75970 1624-1722, limits assumed, looked up): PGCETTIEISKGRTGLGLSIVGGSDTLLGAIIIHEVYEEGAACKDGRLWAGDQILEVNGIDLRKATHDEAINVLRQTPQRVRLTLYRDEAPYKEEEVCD

In a further assay the target is T7, TX1BP3, O14907.
T7 sequence (O14907 10-122, limits assumed, looked up): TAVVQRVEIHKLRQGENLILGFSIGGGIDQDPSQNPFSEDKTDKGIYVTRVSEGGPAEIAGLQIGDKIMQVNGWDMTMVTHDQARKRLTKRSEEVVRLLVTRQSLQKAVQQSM

In the next assay the target is T8, MPDZ_5, O75970.
T8 sequence (O75970 695-796, limits assumed, looked up): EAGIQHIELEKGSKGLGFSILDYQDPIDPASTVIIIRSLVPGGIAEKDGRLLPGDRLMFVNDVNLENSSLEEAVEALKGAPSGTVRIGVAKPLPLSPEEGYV

A further assay has as its target T9, LRRC7, Q96NW7.
T9 sequence (Q96NW7 1440-1537, limits assumed, looked up): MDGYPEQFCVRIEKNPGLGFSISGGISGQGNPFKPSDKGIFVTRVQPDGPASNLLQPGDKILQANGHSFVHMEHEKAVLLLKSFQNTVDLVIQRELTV

The next assay deals with T10, ARHGEF11, O15085.
T10 sequence (O15085 42-136, limits assumed, looked up): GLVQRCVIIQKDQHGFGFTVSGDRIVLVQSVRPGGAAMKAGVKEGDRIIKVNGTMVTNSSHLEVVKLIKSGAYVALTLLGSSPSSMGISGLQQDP

The next assay has as its target T11, PDZRN3_1, Q9UPQ7.
T11 sequence (Q9UPQ7 244-349, limits assumed, looked up): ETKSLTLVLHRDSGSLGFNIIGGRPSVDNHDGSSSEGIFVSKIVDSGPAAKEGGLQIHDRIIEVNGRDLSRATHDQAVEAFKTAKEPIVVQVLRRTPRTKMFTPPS

Another assay has as its target T12, APBA3_1, O96018.
T12 sequence (O96018 389-490, limits assumed, looked up): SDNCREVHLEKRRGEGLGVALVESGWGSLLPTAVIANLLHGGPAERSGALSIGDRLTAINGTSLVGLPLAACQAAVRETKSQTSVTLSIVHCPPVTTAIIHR

As a reminder, the pKd is −log10 of the Kd, conventionally taken in molar units.

MAST1, Q9Y2H9, sequence (Q9Y2H9 962-1065): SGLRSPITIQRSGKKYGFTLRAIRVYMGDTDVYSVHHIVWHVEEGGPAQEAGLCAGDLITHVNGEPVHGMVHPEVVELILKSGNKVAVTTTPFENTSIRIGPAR
MAGI2_5, Q86UL8, sequence (Q86UL8 915-1017): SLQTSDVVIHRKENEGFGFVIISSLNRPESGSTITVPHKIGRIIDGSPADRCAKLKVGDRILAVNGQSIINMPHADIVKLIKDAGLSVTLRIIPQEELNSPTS
AHNAK1, Q09666, sequence (Q09666 4-100): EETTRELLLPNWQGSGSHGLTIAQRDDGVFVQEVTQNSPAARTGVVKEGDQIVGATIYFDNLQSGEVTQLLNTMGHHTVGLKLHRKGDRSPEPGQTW
TJP1_2, Q07157, sequence (Q07157 181-274): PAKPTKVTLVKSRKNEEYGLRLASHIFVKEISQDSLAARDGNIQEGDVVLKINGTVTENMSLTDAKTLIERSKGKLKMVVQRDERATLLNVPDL
DLG1_3, Q12959, sequence (Q12959 457-571): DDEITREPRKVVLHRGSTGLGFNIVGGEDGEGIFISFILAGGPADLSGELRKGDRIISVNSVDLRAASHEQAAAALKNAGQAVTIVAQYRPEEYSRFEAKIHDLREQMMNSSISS
NOS1, P29475, sequence (P29475 9-101): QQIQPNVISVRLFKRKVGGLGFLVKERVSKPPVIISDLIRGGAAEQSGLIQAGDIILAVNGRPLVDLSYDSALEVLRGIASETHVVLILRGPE
PICK1, Q9NRD5, sequence (Q9NRD5 17-115): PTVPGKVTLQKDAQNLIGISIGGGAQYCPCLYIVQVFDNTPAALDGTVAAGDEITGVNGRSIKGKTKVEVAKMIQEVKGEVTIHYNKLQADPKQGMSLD
HTRA1, Q92743, sequence (Q92743 360-477): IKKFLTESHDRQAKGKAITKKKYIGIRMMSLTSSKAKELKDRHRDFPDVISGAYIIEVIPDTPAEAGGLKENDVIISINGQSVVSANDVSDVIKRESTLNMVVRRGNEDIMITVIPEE
NHERF4_2, Q86UT5, sequence (Q86UT5 220-308): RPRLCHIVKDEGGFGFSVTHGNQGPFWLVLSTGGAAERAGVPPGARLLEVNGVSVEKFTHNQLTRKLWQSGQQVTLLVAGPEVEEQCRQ
PTPN3, P26045, sequence (P26045 505-587): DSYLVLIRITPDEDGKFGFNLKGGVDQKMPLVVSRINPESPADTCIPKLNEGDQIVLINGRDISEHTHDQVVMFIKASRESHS
IL16_3, Q14005, sequence (Q14005 1107-1207): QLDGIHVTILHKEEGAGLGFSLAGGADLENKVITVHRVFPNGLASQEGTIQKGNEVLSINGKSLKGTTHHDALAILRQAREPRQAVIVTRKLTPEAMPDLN

B1: CD226, Q15762 (peptide)
chain: TFSRRPKTRV
For B1, the negative logarithm of the Kd (pKd) entry is “below the threshold” with DLG1_3, Q12959; “below the threshold” with AHNAK1, Q09666; “below the threshold” with LIN7A, O14910; “below the threshold” with MPDZ_12, O75970; “below the threshold” with DFNB31_3, Q9P202; 4.24 with MAST1, Q9Y2H9. Also, the pKd with NOS1, P29475 is 4.17; in the assay with DLG3_1, Q92796, “below the threshold”; with NHERF3_4, Q5T2W1 it was “below the threshold”; with DLG2_3, Q15700 it was 3.88; with HTRA1, Q92743, “below the threshold”; with MPDZ_10, O75970, 4.03. The pKd entry with PTPN3, P26045 is “below the threshold”; in the assay with TX1BP3, O14907, “below the threshold”; in the assay with MPDZ_5, O75970 it was “below the threshold”; with LRRC7, Q96NW7, “below the threshold”; with ARHGEF11, O15085 it was 4.06; with PDZRN3_1, Q9UPQ7, 3.48. The pKd entry with IL16_3, Q14005 was “below the threshold”; with MAGI2_5, Q86UL8 it was “below the threshold”; in the assay with TJP1_2, Q07157, 3.5; in the assay with PICK1, Q9NRD5 it was “below the threshold”; with NHERF4_2, Q86UT5, “below the threshold”; with APBA3_1, O96018 it was “below the threshold”.

B2: FZD1, Q9UP38 (peptide)
chain: TNSKQGETTV
In the case of B2, the pKd was 4.13 with DLG1_3, Q12959; “below the threshold” with AHNAK1, Q09666; 3.72 in the assay with LIN7A, O14910; “below the threshold” with MPDZ_12, O75970; 4.06 in the assay with DFNB31_3, Q9P202; 4.32 with MAST1, Q9Y2H9. Moreover, the negative logarithm of the Kd (pKd) with NOS1, P29475 was 3.53; with DLG3_1, Q92796, 4.37; with NHERF3_4, Q5T2W1 it was “below the threshold”; with DLG2_3, Q15700 it was 3.77; with HTRA1, Q92743, 4.34; with MPDZ_10, O75970 it was “below the threshold”. Also, the pKd with PTPN3, P26045 was 4.79; in the assay with TX1BP3, O14907, 4.17; with MPDZ_5, O75970, “below the threshold”; with LRRC7, Q96NW7 it was “below the threshold”; with ARHGEF11, O15085, 4.25; with PDZRN3_1, Q9UPQ7, 3.85. Also, the pKd entry was “below the threshold” with IL16_3, Q14005; “below the threshold” with MAGI2_5, Q86UL8; 3.48 with TJP1_2, Q07157; 4.2 with PICK1, Q9NRD5; “below the threshold” with NHERF4_2, Q86UT5; “below the threshold” in the assay with APBA3_1, O96018.

B3: TMEM178B, H3BS89 (peptide)
chain: KSRPENGTVC
Take B3: the pKd result was “below the threshold” with DLG1_3, Q12959; “below the threshold” with AHNAK1, Q09666; “below the threshold” with LIN7A, O14910; “below the threshold” with MPDZ_12, O75970; 3.99 in the assay with DFNB31_3, Q9P202; “below the threshold” in the assay with MAST1, Q9Y2H9. Besides, the pKd is 3.47 with NOS1, P29475; “below the threshold” with DLG3_1, Q92796; “below the threshold” in the assay with NHERF3_4, Q5T2W1; “below the threshold” in the assay with DLG2_3, Q15700; 4.32 with HTRA1, Q92743; “below the threshold” with MPDZ_10, O75970. Further, the pKd was 3.77 with PTPN3, P26045; “below the threshold” in the assay with TX1BP3, O14907; “below the threshold” with MPDZ_5, O75970; “below the threshold” in the assay with LRRC7, Q96NW7; 3.89 in the assay with ARHGEF11, O15085; “below the threshold” with PDZRN3_1, Q9UPQ7. In addition, the negative-log Kd (pKd) result with IL16_3, Q14005 is “below the threshold”; in the assay with MAGI2_5, Q86UL8, “below the threshold”; with TJP1_2, Q07157, “below the threshold”; with PICK1, Q9NRD5, “below the threshold”; in the assay with NHERF4_2, Q86UT5, “below the threshold”; with APBA3_1, O96018, “below the threshold”.

B4: SLC1A7, O00341 (peptide)
chain: IQISELETNV
As for B4, the pKd with DLG1_3, Q12959 was 3.57; with AHNAK1, Q09666 it was “below the threshold”; with LIN7A, O14910, 3.52; in the assay with MPDZ_12, O75970, “below the threshold”; with DFNB31_3, Q9P202, “below the threshold”; in the assay with MAST1, Q9Y2H9, 4.71. In addition, the pKd entry was “below the threshold” with NOS1, P29475; 3.91 with DLG3_1, Q92796; “below the threshold” with NHERF3_4, Q5T2W1; “below the threshold” with DLG2_3, Q15700; 3.76 with HTRA1, Q92743; “below the threshold” with MPDZ_10, O75970. The negative-log Kd (pKd) in the assay with PTPN3, P26045 was 4.84; in the assay with TX1BP3, O14907, 4.03; with MPDZ_5, O75970, “below the threshold”; with LRRC7, Q96NW7 it was “below the threshold”; with ARHGEF11, O15085 it was 3.94; with PDZRN3_1, Q9UPQ7, 3.84. For the same molecule, the negative-log Kd (pKd) result with IL16_3, Q14005 is “below the threshold”; with MAGI2_5, Q86UL8, 4.11; in the assay with TJP1_2, Q07157 it was “below the threshold”; with PICK1, Q9NRD5, 4.18; with NHERF4_2, Q86UT5, “below the threshold”; with APBA3_1, O96018, “below the threshold”.
